Data from patent publication EP1900813A1, “NOVEL PHYSIOLOGICAL SUBSTANCE NESFATIN, SUBSTANCE RELEVANT THERETO, AND USE OF THE SUBSTANCES” (Teijin Pharma Limited, priority 2005, dated 2008).
No end group written: not given here.

How the values were obtained:
[1] = tested on: nesfatin; test: Specificity of immunohistochemical stain of rat hypothalamus with anti-nesfatin-1 antibody after pre-reaction with peptides; type: binding; settings: 5 µg peptide per 1 µg antibody
Protocol: In a method similar to that in Working Example 4, immunohistochemical stain was carried out on tissue sections of the rat brain each containing arcuate nucleus and paraventricular nucleus, in which anti-nesfatin-1 antibody (nesfatin-1 IgG; Working Example 10) was used in stead of a anti-NAP polyclonal antibody as the primary antibody.

[2] = tested on: nesfatin; test: Binding specificity of anti-nesfatin-1 antibody: Western blotting of rat brain extracts after pre-reaction with peptides; settings: 5 µg peptide per 1 µg anti-nesfatin-1 antibody, room temperature, 1 hour
Protocol: Western blotting analysis was carried out by the method described in Working Example 3 with the primary antibody being changed from anti-NAP polyclonal antibody to anti-nesfatin-1 antibody.

[3] = Single administration of nesfatin-1, nesfatin-2, nesfatin-3 or nesfatin-2/3 into the third ventricle, amount of food intake; type: in vivo, Wistar rats
Protocol: Samples used for intracerebral administration were PBS alone (vehicle group), or nesfatin-1, nesfatin-2, nesfatin-3 or nesfatin-2/3 prepared in Working Example 10 each dissolved in PBS, and 25 pmol was administered per individual into the third ventricle immediately before the dark period. Rats used were Wistar rats (purchased from Nippon SLC) and were housed as in Working Example 6, and among 8-9 week-old male Wistar rats, those individuals weighing 200-250 g were selected and used (N=5). The technique of intraventricular administration and the measurement of the amount of food intake in rats were carried out in a method similar to those in Workig Example 6. In the measurement of the amount of food intake, the reduced amount of food at 1 hour after administration (0-1 hr) and […] (1-3 hrs) was determined as food intake.
In the same condition above, 1, 5 or 25 pmol of nesfatin-1 as a sample was administered per rat individual into the third ventricle immediately before the dark period. In this experiment, the amount of food intake was determined at 1 hour after administration (0-1 hr).
The experimental condition was similar to that in Working Example 12, and 5 pmol of nesfatin-1 was administered into the third ventricle of the rat brain immediately before the start of the dark period, the amount decreased of the food (the amount of food intake) during 1 hour immediately after administration (0-1 hr), during 2 hours from 1 hour after the administration (1-3 hr), during 3 hours from 3 hours after the administration (3-6 hr), and during 6 hours from 6 hours after the administration (6-12 hr) was measured as the amount of food intake. As the control group, the amount of food intake by individuals that received physiological saline alone was measured.

[4] = Continuous administration of nesfatin-1 into the rat ventricle, weight of adipose tissues and muscle; type: in vivo; settings: 5 pmol per day, third ventricle, osmotic pump, 10 days; vs physiological saline
Protocol: Nesfatin-1 (5 pmol per day) or physiological saline alone (the control group) was administered into the third ventricle of a rat using an osmotic pump for 10 consecutive days (5 and 4 rats were used per group). Intraventricular administration into rats by the osmotic pump was carried out in a manner similar to that in Working Example 13.
After the administration of nesfatin-1 or physiological saline alone for 10 days, each rat was sacrificed, dissected to excise all of the abdominal subcutaneous adipose tissue, the epididymal adipose tissue (these are white adipose tissue) and the retroperitoneal brown adipose tissue, and the weight of them was measured. Also, the gastrocnemial muscles of the bilateral hind legs were harvested and the weight of them was measured. From the weight of the tissues measured, their ratio to the body weight of each individual was determined (tissue weight/body weight, mg/g). For testing of significant difference, analysis of variance was used.

[5] = Continuous intraventricular administration of nesfatin-1 by osmotic pump, amount of food intake and body weight; type: in vivo, Wistar rats; settings: 5 pmol per day into the third ventricle, 10 consecutive days, vs physiological saline
Protocol: The administration of nesfatin-1 was carried out into the ventricle by an osmotic pump for 10 consecutive days. Among 8 week-old male Wistar rats (purchased from Nippon SLC), those individuals weighing 200-250 g were used. The rats received intraperitoneal administration of 40 mg/kg body weight of pentobarbital sodium for anesthesia. After the hair was removed from the head, they were fixed in a brain stereotaxic apparatus (David Kopf Instruments, Model 962) and the scalp was incised and a 23G needle (guide cannula) was implanted so that the tip reaches the third ventricle (2.5 mm behind the bregma, 9.5 mm from the surface). One week after implanting the guide cannula, the animals were subjected to the experiment. The osmotic pump used was Alzet's Model 2002. […] The measurement of the amount of food intake started from the day after the cannula and the osmotic pump were implanted, and the weight of the residual food was measured at 9 a.m. every day, and by determining the difference from the weight of the food on the previous day, the amount of food intake of the day (24 hours) was calculated. From day 6 after the start of administration, body weight was measured at the time of measuring the amount of food intake, and changes in body weight were also recorded.

[6] = Intraventricular administration of nesfatin-1 alone or leptin alone, amount of food intake; type: in vivo, rat; settings: 5 pmol nesfatin-1 alone, third ventricle; vs control group (physiological saline)
Protocol: The experimental condition was similar to that in Working Example 12, and for a group that received 5 pmol of nesfatin-1 alone into the third ventricle of the rat brain immediately before the start of the dark period and a group that received 5 pmol of nesfatin-1 and 8 µg of anti-nesfatin-1 antibody (nesfatin-1 IgG), the amount of food intake for 1 hour after administration was measured and compared to that for the control group (physiological saline alone was administered). Also, for a group that received only leptin (Rat leptin: R & D Systems, 598-LP-01M) (1 µg) which is known to have an activity of suppressing food intake by intraventricular administration and a group that received leptin and anti-nesfatin-1 antibody, its effect on food intake was also studied.

[7] = rat brain tissue containing the arcuate nucleus
[8] = rat brain tissue section containing the paraventricular nucleus

Question: With “CART: Rat Cocaine- and Amphetamine-Regulated Transcript 55-102; Peptide Institute, Inc., 4351-s (IPIYEKKYGQVPMCDAGEQCAVRKGARIGKLCDCPRGTSCNSFLLKCL; ends and bridges not checked; cysteine pairing not given here)” as the molecule, how does the “immunological stain with anti-nesfatin-1 antibody after pre-reaction with the peptide” value (“immunological stain” below) [1, 7] read?
Answer: The value was “does not disappear”.

Question: And the “immunological stain” value [1, 8]?
Answer: The value was “does not disappear”.

Question: Which “47.5 kd band of nesfatin in Western blotting after pre-reaction of anti-nesfatin-1 antibody with the peptide” value [2] does the source give for “MCH: Human Melanin-Concentrating Hormone; Peptide Institute, Inc., 4369-v” here?
Answer: The value was “did not disappear”.

Question: Which results are given for “NPY: Human, Rat Neuropeptide Y; Peptide Institute, Inc., 4158-v”?
Answer: immunological stain with anti-nesfatin-1 antibody after pre-reaction with the peptide [1, 7]: does not disappear; immunological stain with anti-nesfatin-1 antibody after pre-reaction with the peptide [1, 8]: does not disappear; 47.5 kd band of nesfatin in Western blotting after pre-reaction of anti-nesfatin-1 antibody with the peptide [2]: did not disappear

Question: With “Orexin-A: Human, Rat, Mouse, Bovine Orexin-A; Peptide Institute, Inc., 4346-s (QPLPDCCRQKTCSCRLYELLHGAGNHAAGILTL)” as the molecule, how does the “47.5 kd band of nesfatin in Western blotting after pre-reaction of anti-nesfatin-1 antibody with the peptide” value [2] read?
Answer: Its value is “did not disappear”.

B1: nesfatin-1: peptide of 82 residues, amino acid Nos. 25 to 106 of nesfatin; rat nesfatin-1 (SEQ ID NO: 15) by solid-phase synthesis (peptide, UniProt Q9JI85 25-106, looked up)
Nesfatin-1: VPIDVDKTKVHNVEPVESARIEPPDTGLYYDEYLKQVIEVLETDPHFREKLQKADIEEIRSGRLSQELDLVSHKVRTRLDEL
modifications: Nesfatin-1
Question: With B1 as the molecule, how does the “amount of food intake” value ([3]; 5 pmol, third ventricle, 0-1 hr, vs saline group (0)) read?
Answer: The value was “significant decrerased amount of food intake”.

Question: And the “amount of food intake” value ([3]; 25 pmol into the third ventricle immediately before the dark period, 0-1 hr, vs control (PBS))?
Answer: The value was “marked effect on the suppression of feeding”.

Question: And the “amount of food intake” value ([3]; 25 pmol into the third ventricle immediately before the dark period, 1-3 hr, vs control (PBS))?
Answer: Its value is “marked effect on the suppression of feeding”.

Question: And the “amount of food intake” value ([3]; 25 pmol, third ventricle, 0-1 hr, dose experiment, vs saline group (0))?
Answer: Its value is “significant decrerased amount of food intake”.

Question: And the “amount of food intake” value ([3]; 1, 5 or 25 pmol per rat, third ventricle, 0-1 hr, dose relation vs saline group (0))?
Answer: Its value is “decreased amount of food intake, with the increased amount of the administered nesfation-1”.

Question: And the “amount of food intake” value ([3]; Working Example 27, 5 pmol, third ventricle, 0-1 hr, p<0.01 vs control)?
Answer: Its value is “Significant decreases in the amount of food intake”.

Question: And the “amount of food intake” value ([3]; Working Example 27, 5 pmol, third ventricle, 1-3 hr, p<0.01 vs control)?
Answer: The value was “Significant decreases in the amount of food intake”.

Question: And the “amount of food intake” value ([3]; Working Example 27, 5 pmol, third ventricle, 3-6 hr, p<0.01 vs control)?
Answer: The value was “Significant decreases in the amount of food intake”.

Question: And the “amount of food intake” value ([3]; Working Example 27, 5 pmol, third ventricle, 6-12 hr, p<0.01 vs control)?
Answer: The value was “an increase in the amount of food intake”.

Question: What about the “immunological stain” value [1, 7] of the same molecule?
Answer: Its value is “the stain disappears”.

Question: What about the “immunological stain” value [1, 8] of the same molecule?
Answer: Its value is “the stain disappears”.

Question: What about the “ratio of tissue weight to body weight, abdominal subcutaneous adipose tissue” value [4] of the same molecule?
Answer: Its value is “significant decreases in the ratio of tissue weight to body weight”.

Question: And the “ratio of tissue weight to body weight, epididymal adipose tissue” value [4]?
Answer: The value was “significant decreases in the ratio of tissue weight to body weight”.

Question: What about the “ratio of tissue weight to body weight, mesenteric adipose tissue” value [4] of the same molecule?
Answer: The value was “significant decreases in the ratio of tissue weight to body weight”.

Question: What about the “ratio of tissue weight to body weight, retroperitoneal adipose tissue” value [4] of the same molecule?
Answer: Its value is “tended to decrease but no significant difference”.

Question: And the “total tissue weight to the body weight, brown adipose tissue” value [4]?
Answer: The value was “no significant difference”.

Question: And the “total tissue weight to the body weight, gastrocnemial muscle” value [4]?
Answer: Its value is “no significant difference”.

Question: And the “amount of food intake of the day (24 hours)” value [5]?
Answer: Its value is “decrease in the amount of food intake was noted from day 1”.

Question: What about the “rate of increase in body weight” value [5] of the same molecule?
Answer: Its value is “significantly declined”.

B2: recombinant nesfatin: recombinant matured mouse nesfatin (SEQ ID NO: 26) from E. coli GST-NEFA fusion protein treated with protease (protein)
chain: GSPIDVDKTKVHNTEPVENARIEPPDTGLYYDEYLKQVIEVLETDPHFREKLQKADIEEIRSGRLSQELDLVSHKVRTRLDELKRQEVGRLRMLIKAKLDALQDTGMNHHLLLKQFEHLNHQNPNTFESRDLDMLIKAATADLEQYDRTRHEEFKKYEMMKEHERREYLKTLSEEKRKEEESKFEEMKRKHEDHPKVNHPGSKDQLKEVWEETDGLDPNDFDPKTFFKLHDVNNDGFLDEQELEALFTRELEKVYNPQNAEDDMIEMEEERLRMREHVMSEIDNNKDRLVTLEEFLRATEKKEFLEPDSWETLDQQQLFTEDELKEYESIIAIQENELKKRAEELQKQKEDLQRQHDHLEAQKQEYHQAVQHLEQKKLQQGIAPSGPAGELKFEPHT
Question: With B2 as the molecule, how does the “amount of food intake for 1 hour after administration” value [6] read?
Answer: The value was “significantly decreased”.
